Data on three molecules can be found in US20220135694A1, “NOVEL CD40-BINDING ANTIBODIES” (LAVA THERAPEUTICS B.V., priority 2019, published 2022).

Assay [1] concerns the target T1, human CD40 (CD40-transfected HEK293T cells) (Homo sapiens, UniProt P25942).
T1 construct: expressed in transfected cells; host or cells: HEK293T
Nature of the assay: Monovalent VHH binding to CD40-transfected HEK293T cells, Myc-tag flow cytometry. Conditions: for average geometric mean fluorescence intensity (Myc-tag): CD40-transfected HEK293T cells, 2 experiments; for binding to CD40-expressing cells: detection of the Myc tag, FIG. 1B. As for the experimental part:
The embryonic kidney cell line HEK293T, either wildtype (WT) or transfected with human CD40, was grown in Dulbecco's Modified Eagle Medium (41965-039, Thermo Fisher Scientific, Waltham, Mass., USA), supplemented with 10% fetal calf serum (F7524, Merck, Kenilworth, N.J., USA), 200 mM L-glutamine (25030-123, Thermo Fisher Scientific), 0.05 mM β-mercapto-ethanol (M6250, Merck) and 10,000 U/mL penicillin/streptomycin (15140-122, Thermo Fisher Scientific), hereafter referred to as complete DMEM.
CD40 expression on CD40-transfected cells was confirmed by incubation with a PE-conjugated anti-CD40 antibody (IM1936U, Beckman Coulter, Brea, Calif., USA) for 20 minutes at 4° C. […] Bound VHH was detected by sequential incubation with mouse-anti-Myc tag (05-274, Merck) and AF488-conjugated goat-anti-mouse (A-11001, Thermo Fisher Scientific) antibodies for 20 minutes at 4° C.
Samples were measured on a FACSCanto cytometer (BD Biosciences, Franklin Lakes, N.J., USA) and analyzed with Flowjo MacV10.
For orientation: In flow cytometry, cells or beads pass a laser one at a time.

The test system of another assay is primary CLL cells. Nature of the assay: Monovalent VHH binding to primary CLL cells, flow cytometry. Set-up: species or system human. The note with it: n=5 samples; FIG. 2B. An excerpt:
Peripheral blood (PB) mononuclear cells (PBMCs, ≥95% CD5^+CD19^+) were isolated from PB samples from untreated CLL patients and cryopreserved as described previously (Hallaert et al. (2008), Blood 112(13):5141-9). The study was approved by the medical ethics committee at the Amsterdam UMC. Written informed consent from all subjects was obtained. Thawed cells were kept in Iscove's Modified Dulbecco's Medium (IMDM; 12440-053, Thermo Fisher Scientific), supplemented with 10% fetal calf serum (F7524, Merck), 200 mM L-glutamine (25030-123, Thermo Fisher Scientific), 0.05 mM β-mercapto-ethanol (M6250, Merck) and 10.000 U/mL penicillin/streptomycin (15140-122, Thermo Fisher Scientific), hereafter referred to as complete IMDM.
CD40 expression on primary CLL cells was confirmed and VHH binding was tested as described in Example 2.

Assay [2] addresses T2, CD40 (Homo sapiens, UniProt P25942).
T2 construct: Primary chronic lymphocytic leukemia (CLL) cells express CD40 on the cell surface; endogenous in cells; host or cells: primary CLL PBMCs from untreated CLL patients
Nature of the assay: CD40 agonistic activity in primary CLL cells, 48 h, flow cytometry. Format: cell-based. The note with it: various concentrations, FIG. 3A-C. As for the experimental part:
PBMCs (≥90% CD5^+CD19^+) from untreated CLL patients were obtained and cryopreserved as described in Example 3. Thawed cells were kept in complete IMDM.
To assess whether binding of the VHH to CD40 has agonistic effects, primary CLL PBMCs were cultured for 48 hours in the presence of VHH, medium control or recombinant multimeric CD40 ligand (rmCD40L; 100 ng/mL, Bioconnect).
After 48 hours, cells were harvested, washed and incubated with AF700-conjugated anti-CD19 (557921), FITC-conjugated anti-CD80 (6109965), APC-conjugated anti-CD86 (555660, all BD Biosciences), PE-conjugated anti-CD5 (12-0059-42, Thermo Fisher Scientific) and PECy7-conjugated anti-CD95 (305621, Biolegend, San Diego, Calif., USA) antibodies for 20 minutes at 4° C. Alternatively, after 48 hours, cells were harvested and viability was measured using Mitotracker Orange (25-minute incubation at 37° C.) and To-pro-3 (10-minute incubation at room temperature; both Thermo Fisher Scientific). Samples were measured on a FACSCanto cytometer (BD Biosciences) and analyzed with Flowjo MacV10.
To assess whether binding of the VHH has agonistic effects, primary CLL PBMCs were cultured with the indicated concentrations of V19S76K-5C8, medium control or rmCD40L for 48 hours and analyzed by flow cytometry as described in Example 4.

Assay [3] has as its target T2, CD40. Nature of the assay: CD40 antagonistic activity in primary CLL cells: pre-incubation, then rmCD40L for 48 h. Format: cell-based. Conditions: 30 min pre-incubation, then rmCD40L 100 ng/mL for 48 hours; FIG. 4A-C. The method, then: PBMCs (≥90% CD5^+CD19^+) from untreated CLL patients were obtained and cryopreserved as described in […]. Thawed cells were kept in complete IMDM.
To test whether the VHH antagonizes CD40 stimulation, primary CLL PBMCs were pre-incubated with VHH or medium control for 30 minutes at 37° C. and subsequently cultured for 48 hours in the presence of rmCD40L (100 ng/mL).
After 48 hours, cells were analyzed by flow cytometry as described in Example 4.
To assess whether binding of the VHH has antagonistic effects, primary CLL PBMCs were pre-incubated with V19S76K-5C8 or medium control and then cultured with rmCD40L for 48 hours and analyzed by flow cytometry as described in Example 5.

The target of assay [4] is T3, human CD40 (human, UniProt P25942 21-277).
T3 construct: In the assays it stood on CD40-transfected HEK293T cells, primary CLL cells or the CLL-derived CII cell line; also called tumor necrosis factor receptor superfamily member 5; TNR5_HUMAN
The assay is described as follows: flow cytometry on CD40+ CII cells, anti-llama IgG detection, non-linear regression. As for the experimental part:
(§1) FIG. 6: V19S76K-5C8 binds to CD40⁺ and Vγ9Vδ2+ cells. Cell lines were incubated with V19S76K-5C8 or medium control and bound bsVHH was detected using anti-llama IgG heavy and light chain antibodies by flow cytometry. (A) Bar plots and (B) non-linear regression analysis of V19S76K-5C8 binding to healthy donor-derived Vγ9Vδ2-T cell lines (n=3). (C) Bar plots and (D) non-linear regression analysis of V19S76K-5C8 binding to […] CD40⁺ CII cell line (n=3). […] (A, C: repeated-measures one-way ANOVA followed by Dunnett's post hoc test compared to condition without bsVHH; B, D: non-linear regression analysis).

For assay [5], the target named is T3, human CD40. Nature of the assay: flow cytometry, CD40+ CII cell line (n=3), non-linear regression curve. The method, then:
as §1

Assay [6] addresses human Vγ9Vδ2 T cell receptor (human) (UniProt Q99603). Nature of the assay: flow cytometry, healthy donor-derived Vγ9Vδ2-T cell lines (n=3), non-linear regression curve.
Assay [7] has the same target. The assay is described as follows: flow cytometry on healthy donor-derived Vγ9Vδ2-T cell lines, anti-llama IgG detection, non-linear regression.

T2 sequence (P25942 21-277): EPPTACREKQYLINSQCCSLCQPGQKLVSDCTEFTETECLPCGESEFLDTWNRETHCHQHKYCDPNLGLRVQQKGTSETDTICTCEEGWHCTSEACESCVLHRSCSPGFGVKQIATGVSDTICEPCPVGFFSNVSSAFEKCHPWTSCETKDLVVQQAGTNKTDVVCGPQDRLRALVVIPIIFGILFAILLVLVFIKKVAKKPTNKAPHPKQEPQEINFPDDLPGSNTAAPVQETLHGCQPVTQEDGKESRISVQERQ
T1 sequence (P25942 21-277): as above
T3 sequence (P25942 21-277 limits assumed): as the sequence (P25942 21-277) above

B1: V19t: monovalent anti-CD40 VHH V19 with C-terminal Myc- and His6-tag, SEQ ID NO:15 (protein)
VHH: QVQLQESGGGLVQAGGSLRLSCAASGRTFGRSAMGWFRQAPGKEREFVAAIGTRGGSTKYADSVKGRFTISTDNASNTVYLQMDSLKPEDTAVYRCAVRGPGYPSAAIFQDEYHYWGQGTQVTVSSGLEGHSDHMEQKLISEEDLNRISDHHHHHH
modifications: antibody sequence
Regarding B1, the “average geometric mean fluorescence intensity (Myc-tag)” value in assay [1] (VHH concentration 1 pM) is reported as 5031; in assay [1] (VHH concentration 10 pM), 4938; in assay [1] (VHH concentration 100 pM), 5538; in assay [1] (VHH concentration 1 nM) it was 6783; in assay [1] (VHH concentration 10 nM), 9101; in assay [1] (VHH concentration 100 nM), 16175. Besides, the “binding to CD40-expressing cells” value in assay [1] is “bound to the CD40-expressing cells”. For the same molecule, in the assay on primary CLL cells, the “binding to primary CLL cells” value was “higher binding intensity than V12t”. Further, the “CD40 stimulation (viability, CD86 and CD95 expression)” value in the assay with CD40 [2] is on record as “did not induce any of these effects”. Further, in the assay with CD40 [3], the “prevention of CD40L-induced CD40 stimulation (viability, CD86 and CD95 expression)” value was “prevented CD40 stimulation in a dose-dependent manner”.

B2: V19S76K-5C8 (bispecific antibody)
chain: QVQLQESGGGLVQAGGSLRLSCAASGRTFGRSAMGWFRQAPGKEREFVAAIGTRGGSTKYADSVKGRFTISTDNAKNTVYLQMDSLKPEDTAVYRCAVRGPGYPSAAIFQDEYHYWGQGTQVTVSSGGGGSEVQLVESGGGLVQAGGSLRLSCAASGRPFSNYAMGWFRQAPGKEREFVAAISWSGGSTSYADSVKGRFTISRDNAKNTVYLQMNSPKPEDTAIYYCAAQFSGADYGFGRLGIRGYEYDYWGQGTQVTVSS
notes: also called bispecific anti-CD40-anti-Vγ9Vδ2 TCR VHH V19S76K-5C8; bsVHH
As for B2, the Kd – broadly, the constant that tells how readily two partners part at equilibrium – in the assay with human CD40 [4] came out at 10.9 nM; in assay [7], 1.2 nM. The EC50 (read off the curve) (usually the midpoint of the concentration-response curve) was ~10 nM in the assay with human CD40 [5] and 1 nM in assay [6].

B3: V15t: monovalent anti-CD40 VHH V15 with C-terminal Myc- and His6-tag, SEQ ID NO:16 (protein)
VHH: EVQLQESGGGLVQAGGSLRLSCVTSGSAFSSDTMGWFRQAPGKQRELVASISSRGVREYADSVKGRFTISRDNAKNTVYLQMNSLQPEDTAVYYCNRGALGLPGYRPYNNWGQGTQVTVSSGLEGHSDHMEQKLISEEDLNRISDHHHHHH
modifications: antibody sequence
B3: the “binding to CD40-expressing cells” value in assay [1] is “bound to the CD40-expressing cells”. Moreover, the “binding to primary CLL cells” value with primary CLL cells is given as “higher binding intensity than V12t”. The “CD40 stimulation (viability, CD86 and CD95 expression)” value in the assay with CD40 [2] is given as “did not induce any of these effects”. Moreover, the “prevention of CD40L-induced CD40 stimulation (viability, CD86 and CD95 expression)” value with CD40 [3] is recorded as “prevented CD40 stimulation in a dose-dependent manner”.
